B1: Stress-activated protein kinase jnk-1 (Caenorhabditis elegans), Q8WQG9 (parent)
chain: MEERLSTTSSYPSHPGRSVEEDHNTLLASSSISSIIRGTRGHLNNFIESVGNWLVPSSSGRDDDAVSLDSCQSVYSPVRHHINSGTGGGILMEPSSIHVPENYYSVTIGEAQMVVLKRYQNLRLIGSGAQGIVCSAFDTVRNEQVAIKKLSRPFQNVTHAKRAYRELKLMSLVNHKNIIGILNCFTPQKKLDEFNDLYIVMELMDANLCQVIQMDLDHERLSYLLYQMLCGIRHLHSAGIIHRDLKPSNIVVRSDCTLKILDFGLARTAIEAFMMTPYVVTRYYRAPEVILGMGYKENVDVWSIGCIFGELIRGRVLFPGGDHIDQWTRIIEQLGTPDRSFLERLQPTVRNYVENRPRYQATPFEVLFSDNMFPMTADSSRLTGAQARDLLSRMLVIDPERRISVDDALRHPYVNVWFDEIEVYAPPPLPYDHNMDVEQNVDSWREHIFRELTDYARTHDIYS

Variants of: B1
Conditions: with jun_human JUN

effect of a mutation on the interaction	Variant
disrupting interaction	K148R

Source: IntAct's records for PubMed 10393177
